From US20060014678A1 (IMPERIAL INNOVATIONS, published 2006)
No end group written: not given here.

Target: T1, NPY Y2 receptor
T1 chain: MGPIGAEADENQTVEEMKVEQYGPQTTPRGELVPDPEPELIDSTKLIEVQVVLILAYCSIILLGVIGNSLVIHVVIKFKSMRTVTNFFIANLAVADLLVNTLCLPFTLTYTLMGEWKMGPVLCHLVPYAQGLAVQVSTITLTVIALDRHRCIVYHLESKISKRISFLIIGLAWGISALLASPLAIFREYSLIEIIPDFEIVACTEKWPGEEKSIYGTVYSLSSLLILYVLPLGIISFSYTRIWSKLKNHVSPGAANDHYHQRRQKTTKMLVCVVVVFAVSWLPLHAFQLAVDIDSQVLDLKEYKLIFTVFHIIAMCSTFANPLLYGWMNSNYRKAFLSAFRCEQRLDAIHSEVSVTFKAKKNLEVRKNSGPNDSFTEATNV
Experiment: receptor-binding study on a cell line expressing the NPY Y2 receptor

IC50: 1.3 nM
Binder: Ac-LRHYLNLLTRQRY (ends and bridges not checked, also called Y2A; Y2R selective agonist) [N-acetyl (Leu^28, Leu^31) NPY (24-36)]
